Source: US20250025549A1

How the values were obtained:
[1] = target: dipeptidyl peptidase IV (DPP4), the MERS-CoV receptor, His-tagged (human) (UniProt P27487); assay: ELISA, spike coated, His-tagged hDPP4 titrated
[2] = target: dipeptidyl peptidase IV (DPP4), the MERS-CoV receptor, His-tagged (human) (UniProt P27487)

Chain of dipeptidyl peptidase IV (DPP4), the MERS-CoV receptor, His-tagged (human) (P27487 29-766 limits assumed): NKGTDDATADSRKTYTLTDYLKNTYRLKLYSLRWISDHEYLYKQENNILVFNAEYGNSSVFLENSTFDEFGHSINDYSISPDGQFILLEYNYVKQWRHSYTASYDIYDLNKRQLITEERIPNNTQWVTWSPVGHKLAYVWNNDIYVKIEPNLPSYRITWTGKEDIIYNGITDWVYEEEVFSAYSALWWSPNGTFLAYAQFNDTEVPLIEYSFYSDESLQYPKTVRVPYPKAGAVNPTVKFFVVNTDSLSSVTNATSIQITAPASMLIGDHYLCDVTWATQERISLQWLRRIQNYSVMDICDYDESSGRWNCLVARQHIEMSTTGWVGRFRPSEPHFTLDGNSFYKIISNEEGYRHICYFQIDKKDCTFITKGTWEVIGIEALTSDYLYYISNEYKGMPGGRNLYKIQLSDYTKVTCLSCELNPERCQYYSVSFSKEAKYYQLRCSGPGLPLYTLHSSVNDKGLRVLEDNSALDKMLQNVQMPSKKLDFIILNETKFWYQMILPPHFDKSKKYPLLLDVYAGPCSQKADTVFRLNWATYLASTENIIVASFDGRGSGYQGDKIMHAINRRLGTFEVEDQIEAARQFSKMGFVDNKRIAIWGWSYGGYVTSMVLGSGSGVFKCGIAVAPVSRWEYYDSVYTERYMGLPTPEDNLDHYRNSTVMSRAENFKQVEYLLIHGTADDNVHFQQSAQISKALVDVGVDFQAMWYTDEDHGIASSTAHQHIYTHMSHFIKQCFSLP

BV2373 CoV S polypeptide (SEQ ID NO: 87) (from UniProt P0DTC2 14-1273) (other; other documents disagree on this pair)
EC50 [1]: > 5 µg/mL | IC50 [2]: > 5 µg/mL
